Test results from paper PMC9810080.

Assays:
[1] = target: CaM1 peptide, CNGB1 residues 565–589 (UniProt Q14028); test: ITC
[2] = target: CaM2 peptide, CNGB1 residues 1120–1147 (UniProt Q14028); test: ITC
CaM2 peptide, CNGB1 residues 1120–1147, sequence (Q14028 1120-1147): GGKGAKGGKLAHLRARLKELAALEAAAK

CaM1 peptide, CNGB1 residues 565–589, sequence (Q14028 565-589): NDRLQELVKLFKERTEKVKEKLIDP

Calmodulin (CaM), full-length (from UniProt P0DP23 1-149) (natural protein)
Kd of the endothermic site (two-site fit) [1]: 240 µM | apparent Kd of the exothermic site (two-site fit) [1]: 1 µM | dH1 (site 1 of the two-site fit) [1]: -7.5 kcal/mol | stoichiometry N [1]: 2 CaM1 per CaM | dH [2]: 2.1 kcal/mol | dH1 (site 1 of the two-site fit) [2]: -4.5 kcal/mol | stoichiometry N [2]: 2 CaM2 per CaM
